Data on two molecules can be found in PMC11939848, “Aptamer-Based Graphene Field-Effect Transistor Biosensor for Cytokine Detection in Undiluted Physiological Media for Cervical Carcinoma Diagnosis”.

The target in data set [1] is T1, IL-6 (UniProt P05231 30-212). Put plainly: graphene FET (Hill-Langmuir fit); 2000 Da PEG, undiluted lavage fluid; 1x PBS, artificial sweat (10x diluted or undiluted) or undiluted lavage fluid; aptamer immobilized on graphene; pH and temperature not stated. Conditions: protein: commercial.
T1 sequence (P05231 30-212): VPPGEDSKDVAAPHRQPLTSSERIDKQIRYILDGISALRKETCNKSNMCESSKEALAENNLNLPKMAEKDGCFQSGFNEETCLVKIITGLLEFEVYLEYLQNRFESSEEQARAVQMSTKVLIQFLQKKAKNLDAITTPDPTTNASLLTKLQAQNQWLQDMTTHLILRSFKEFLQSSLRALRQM
In data set [2] the target is T1, IL-6. Put plainly: graphene FET (Hill-Langmuir fit); 1000 Da PEG, undiluted lavage fluid; 1x PBS, artificial sweat (10x diluted or undiluted) or undiluted lavage fluid; aptamer immobilized on graphene; pH and temperature not stated. Conditions: protein: commercial.
The target in data set [3] is T1, IL-6. Kind of data set: graphene FET (Hill-Langmuir fit); 1000 Da PEG, PBS; 1x PBS, artificial sweat (10x diluted or undiluted) or undiluted lavage fluid; aptamer immobilized on graphene; pH and temperature not stated. Conditions: protein: commercial.
The target in data set [4] is T1, IL-6. Kind of data set: graphene FET (Hill-Langmuir fit); 2000 Da PEG, PBS; 1x PBS, artificial sweat (10x diluted or undiluted) or undiluted lavage fluid; aptamer immobilized on graphene; pH and temperature not stated. Conditions: protein: commercial.
Data set [5] has as its target T2, TNF-alpha (UniProt P01375 77-233). Put plainly: graphene FET (Hill-Langmuir fit); 1000 Da PEG, 1x PBS; 1x PBS, artificial sweat (10x diluted or undiluted) or undiluted lavage fluid; aptamer immobilized on graphene; pH and temperature not stated. Conditions: protein: commercial; chain copies: 3; G-quadruplex, two G-tetrads.
Data set [6] concerns the target T2, TNF-alpha. Put plainly: graphene FET (Hill-Langmuir fit); no PEG, 1x PBS; 1x PBS, artificial sweat (10x diluted or undiluted) or undiluted lavage fluid; aptamer immobilized on graphene; pH and temperature not stated. The settings on record: protein: commercial; chain copies: 3; G-quadruplex, two G-tetrads.
The target of data set [7] is T2, TNF-alpha. Put plainly: graphene FET (Hill-Langmuir fit); 2000 Da PEG, 1x PBS; 1x PBS, artificial sweat (10x diluted or undiluted) or undiluted lavage fluid; aptamer immobilized on graphene; pH and temperature not stated. The settings on record: protein: commercial; chain copies: 3; G-quadruplex, two G-tetrads.

T2 sequence (P01375 77-233): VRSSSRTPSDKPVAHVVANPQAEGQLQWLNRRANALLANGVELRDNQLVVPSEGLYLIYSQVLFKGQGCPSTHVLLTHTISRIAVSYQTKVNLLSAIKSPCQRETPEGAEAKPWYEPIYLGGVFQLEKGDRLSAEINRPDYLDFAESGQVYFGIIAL

As for GGTGGCAGGAGGACTATTTATTTGCTTTTCT (ssDNA, 5'-NH2) [IL-6 aptamer], the Kd with IL-6 [1] was determined as 0.194 ± 0.023 nM; with IL-6 [2], 0.57 ± 0.096 nM; with IL-6 [3], 0.084 ± 0.023 nM; with IL-6 [4], 0.188 ± 0.052 nM.
On to TGGTGGATGGCGCAGTCGGCGACAA (ssDNA, 5'-NH2) [TNF-alpha aptamer], for which the Kd in the data set with TNF-alpha [5] worked out at 1.52 ± 0.35 nM; with TNF-alpha [6], 2.82 ± 0.19 nM; in the data set with TNF-alpha [7], 1.21 ± 0.44 nM.

The Kd is the constant that tells how readily two partners part at equilibrium. A high value points to a looser complex.
